# Results published in patent US12613245 (CORNELL UNIVERSITY, dated 2026).
# T1: recombinant/purified KIAA1199/CEMIP protein (amino acids 1-649) (human, UniProt Q8WUJ3 31-649)
# T1 construct: Truncated CEMIP used as immunogen and as ELISA antigen; also called truncated version of KIAA1199/CEMIP protein
# T1 sequence: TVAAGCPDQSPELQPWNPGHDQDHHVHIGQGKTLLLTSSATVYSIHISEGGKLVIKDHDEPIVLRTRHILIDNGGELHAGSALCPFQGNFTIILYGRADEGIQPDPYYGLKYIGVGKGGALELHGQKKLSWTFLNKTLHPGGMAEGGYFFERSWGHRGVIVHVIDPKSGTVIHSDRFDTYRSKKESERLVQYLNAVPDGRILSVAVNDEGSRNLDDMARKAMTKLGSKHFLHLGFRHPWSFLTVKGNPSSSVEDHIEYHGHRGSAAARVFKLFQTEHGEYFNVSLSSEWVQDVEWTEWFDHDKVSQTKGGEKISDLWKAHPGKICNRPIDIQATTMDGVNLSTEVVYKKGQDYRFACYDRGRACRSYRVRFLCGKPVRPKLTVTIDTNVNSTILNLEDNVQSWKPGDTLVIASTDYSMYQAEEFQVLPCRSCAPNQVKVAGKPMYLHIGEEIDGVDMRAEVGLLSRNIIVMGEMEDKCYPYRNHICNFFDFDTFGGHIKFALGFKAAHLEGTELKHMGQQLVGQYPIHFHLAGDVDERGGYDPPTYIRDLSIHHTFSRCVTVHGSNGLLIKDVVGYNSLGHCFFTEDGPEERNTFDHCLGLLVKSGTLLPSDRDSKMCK
# T2: native cell surface CEMIP/KIAA1199 on human MKN45 gastric and N2LA lung cancer cells (human, UniProt Q8WUJ3 31-1361)
# T2 construct: Endogenous CEMIP on live CEMIP-high human cell lines (MKN45, N2LA), the target in flow cytometry; also called native CEMIP expressed on the surface
# T2 sequence: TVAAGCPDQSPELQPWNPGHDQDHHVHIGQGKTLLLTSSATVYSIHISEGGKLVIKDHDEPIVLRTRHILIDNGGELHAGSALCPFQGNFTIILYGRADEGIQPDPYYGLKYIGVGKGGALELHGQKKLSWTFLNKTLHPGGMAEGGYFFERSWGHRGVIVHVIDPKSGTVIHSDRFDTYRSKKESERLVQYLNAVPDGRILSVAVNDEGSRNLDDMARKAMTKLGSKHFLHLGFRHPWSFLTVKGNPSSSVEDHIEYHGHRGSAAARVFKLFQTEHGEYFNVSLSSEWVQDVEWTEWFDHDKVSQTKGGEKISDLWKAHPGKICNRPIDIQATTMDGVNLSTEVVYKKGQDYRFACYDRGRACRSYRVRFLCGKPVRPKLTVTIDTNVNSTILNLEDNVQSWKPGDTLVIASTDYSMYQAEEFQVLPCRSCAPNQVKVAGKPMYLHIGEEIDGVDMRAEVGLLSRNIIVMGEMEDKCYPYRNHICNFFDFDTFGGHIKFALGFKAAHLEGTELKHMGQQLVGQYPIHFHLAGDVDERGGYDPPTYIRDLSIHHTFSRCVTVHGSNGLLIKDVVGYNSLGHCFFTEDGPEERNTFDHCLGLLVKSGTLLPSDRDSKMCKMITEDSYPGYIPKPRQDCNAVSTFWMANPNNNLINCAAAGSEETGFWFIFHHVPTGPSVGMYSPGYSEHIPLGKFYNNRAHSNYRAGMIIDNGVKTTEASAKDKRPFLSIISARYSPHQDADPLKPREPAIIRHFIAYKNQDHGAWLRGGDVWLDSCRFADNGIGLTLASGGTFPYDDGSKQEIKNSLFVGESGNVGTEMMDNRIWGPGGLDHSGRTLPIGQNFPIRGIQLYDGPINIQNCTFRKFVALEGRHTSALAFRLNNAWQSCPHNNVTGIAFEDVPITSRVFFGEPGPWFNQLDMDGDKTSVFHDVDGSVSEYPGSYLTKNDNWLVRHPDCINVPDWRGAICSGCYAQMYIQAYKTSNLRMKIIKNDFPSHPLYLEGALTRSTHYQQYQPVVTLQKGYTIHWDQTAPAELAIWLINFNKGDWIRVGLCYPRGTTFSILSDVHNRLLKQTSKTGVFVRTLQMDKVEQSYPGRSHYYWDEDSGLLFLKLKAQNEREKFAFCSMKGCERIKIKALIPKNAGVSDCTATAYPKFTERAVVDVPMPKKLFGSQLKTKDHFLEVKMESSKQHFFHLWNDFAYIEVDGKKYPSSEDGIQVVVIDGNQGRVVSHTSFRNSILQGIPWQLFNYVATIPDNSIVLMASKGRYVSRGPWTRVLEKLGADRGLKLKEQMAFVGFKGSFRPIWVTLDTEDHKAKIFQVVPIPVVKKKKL
# Tests used:
# [1] = target: T1, recombinant/purified KIAA1199/CEMIP …; experiment: ELISA on recombinant CEMIP, purified antibody (with flow cytometry as second assay)
# [2] = target: T2, native cell surface CEMIP/KIAA1199 on …; experiment: flow cytometry on MKN45 cells
# [3] = target: T2, native cell surface CEMIP/KIAA1199 on …; experiment: flow cytometry on live MKN45 and N2LA cells, purified antibody
# Description: The binding of anti-CEMIP antibodies to native CEMIP expressed on the surface of human MKN45 gastric and N2LA lung cancer cell lines is shown.
# Purified monoclonal antibodies were tested in secondary flow-cytometry screens on 2 CEMIPhi cell lines, MKN45 and N2LA (FIG. 13). Flow cytometry is performed on live cells, and antibodies bind to the native cell surface CEMIP/KIAA1199. Three antibody clones with high affinity and specificity for human KIAA1199/CEMIP were identified from the first screen: 07F11C02, 10F01B02 and 01F11A01, and the sequence of these antibodies was obtained (Table 12). One of these clones resulted from the protein immunization and two resulted from the DNA immunization (FIG.
binding result [1],binding result [2],binding result [3],Binder
binds,binds,,"13G04 (antibody, mouse IgG1, kappa, V domains shown, Mouse monoclonal from hybridoma (second phase screen), IgG1 kappa; also called cAb5778) VH: EVHLQQSGPELVKPGASMKISCKASGYSFTAYTMNWVKQSHGKNLEWIGLINPYNGGTTYNQKFKGKATLTVDKSSSTAYMELLSLTSEDSAVYYCASYYGGRGWYFDVWGAGTSVTVSS VL: DIVLTQSPASLAVSLGQRATISCRASKSVSTSGYSYVHWYQQKPGQPPKLLIYLASNLESGVPARFSGSGSGTDFTLNIHPVEEEDAATYYCQNSRELPYTFGGGTKLEMKR"
binds,binds,,"12D02 (antibody, mouse IgG1, kappa, V domains shown, Mouse monoclonal from hybridoma (second phase screen), IgG1 kappa; also called cAb5775) VH: EVQLQQSGPELVKPGASMKISCKASGYSFTAYTMNWVKQSHGENLEWIGLINPYNGGTTYNQKFKGKATLTVDKSSSTAYMELLSLTSEDSAVYYCASYDYGYAMDYWGQGTSVTVSS VL: DVLMTQTPLSLPVSLGDQASISCRSSQSIVHRNGNTYLEWYLQKPGQSPKLLIYKVSNRFSGVPDRFSGSGSGTDFTLKISRVEAEDLGVYYCFQGSHVPWTFGGGTKLEIKR"
binds,binds,,"12A12 (antibody, mouse IgG1, kappa, V domains shown, Mouse monoclonal from hybridoma (second phase screen), IgG1 kappa; also called cAb5776) VH: EVQLQQSGPELVKPGVSMKISCKASGYSFTAYTMNWVKQSHGENLEWIGLINPYNGGTTYNQKFKGKATLTVDKSSSTAYMELLSLTSEDSAVYYCASYDYGYAMDYWGQGTSVTVSS VL: DVLMTQTPLSLPVSLGDQASISCRSSQSIVHRSGNTYLEWYLQKPGQSPKLLIYKVSNRFSGVPDRFSGSGSGTDFTLKISRVEAEDLGVYYCFQGSHVPWTFGGGTKLEIKR"
binds,binds,,"12D08 (antibody, mouse IgG2a, kappa, V domains shown, Mouse monoclonal from hybridoma (second phase screen), IgG2a kappa; also called cAb5777) VH: EVQLQQSGAELVKPGASVKLSCTASGFNIKDTYMHWVKQRPEQGLIWIGNIDPANGHTKYAPKFQGKATITADTSSNTAYLQLSSLTSEDTAVYYCARSNDYDVDFDYWGQGTTLTVSS VL: DIVMSQSPSSLAVSAGEKVTMSCKSSQSLLNSRTRKNYLAWYQQKPGQSPKLLIYWASTRESGVPDRFTGSGSGTDFSLTISSVQAEDLAVYYCKQSYNLYTFGGGTKLEIKR"
,,binds,"07F11C02 (antibody, mouse IgG2a, kappa, V domains shown, Mouse monoclonal purified from hybridoma, IgG2a kappa; also called cAb4853) VH: DVQLVESGGGLVQPGGSRKLSCAASGFAFSSFGMHWVRQAPERGLEWVAYISSASNTIYYADTVKGRFTISRDNPKSTLFLQMTSLRSEDTAIYYCAKRDWDLYAMDYWGQGTSVTVSS VL: DIVMTQSQKFLSTSVGDRVTITCKASQNVGTAVAWYQQKPGQSPELLIYSASNRHTGVPARFTGSGSGTDFTLTITNMQSEDLADYFCQQYSSSPTFGGGTKLESKR"
